From patent US20090042248

T1: Human C2, P06681
T1 chain: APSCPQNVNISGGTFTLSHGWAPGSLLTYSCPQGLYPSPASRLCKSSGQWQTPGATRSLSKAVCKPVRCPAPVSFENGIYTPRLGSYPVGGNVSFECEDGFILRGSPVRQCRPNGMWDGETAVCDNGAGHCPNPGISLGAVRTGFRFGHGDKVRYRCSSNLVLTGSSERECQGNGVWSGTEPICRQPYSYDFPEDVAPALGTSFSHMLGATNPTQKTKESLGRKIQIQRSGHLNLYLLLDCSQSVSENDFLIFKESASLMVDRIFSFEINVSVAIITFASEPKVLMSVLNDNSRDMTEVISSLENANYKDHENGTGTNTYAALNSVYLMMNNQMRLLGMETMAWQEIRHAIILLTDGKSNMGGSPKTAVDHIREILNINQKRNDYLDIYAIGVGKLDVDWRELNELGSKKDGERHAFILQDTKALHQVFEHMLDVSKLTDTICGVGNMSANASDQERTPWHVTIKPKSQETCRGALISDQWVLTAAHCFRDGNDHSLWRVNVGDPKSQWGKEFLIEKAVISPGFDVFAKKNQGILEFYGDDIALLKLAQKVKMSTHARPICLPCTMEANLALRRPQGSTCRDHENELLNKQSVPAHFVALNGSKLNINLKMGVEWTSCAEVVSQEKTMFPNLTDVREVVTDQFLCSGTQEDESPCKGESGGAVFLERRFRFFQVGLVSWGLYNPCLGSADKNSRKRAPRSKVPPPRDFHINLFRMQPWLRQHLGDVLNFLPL

T2: P1 Arg oligopeptide of the competing oligopeptide substrate library
T2 chain: HAAPRSANIQIAI

T3: P1 Lys oligopeptide of the competing oligopeptide substrate library
T3 chain: HAAPKSANIQIAI

T4: C1-inhibitor, P05155
T4 chain: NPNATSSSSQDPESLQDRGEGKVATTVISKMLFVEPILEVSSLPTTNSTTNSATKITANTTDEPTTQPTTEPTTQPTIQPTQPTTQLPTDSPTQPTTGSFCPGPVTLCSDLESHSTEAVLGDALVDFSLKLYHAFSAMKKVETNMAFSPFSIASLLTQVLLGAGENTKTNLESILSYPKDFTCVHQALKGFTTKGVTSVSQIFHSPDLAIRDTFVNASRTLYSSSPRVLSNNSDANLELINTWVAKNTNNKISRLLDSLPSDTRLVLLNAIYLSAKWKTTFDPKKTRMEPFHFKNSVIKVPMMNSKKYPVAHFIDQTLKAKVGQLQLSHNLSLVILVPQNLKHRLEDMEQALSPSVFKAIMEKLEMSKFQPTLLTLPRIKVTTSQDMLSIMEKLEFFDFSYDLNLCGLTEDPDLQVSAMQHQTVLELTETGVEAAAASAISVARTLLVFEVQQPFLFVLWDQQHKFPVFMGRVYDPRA

T5: alpha-2-macroglobulin, P01023
T5 chain: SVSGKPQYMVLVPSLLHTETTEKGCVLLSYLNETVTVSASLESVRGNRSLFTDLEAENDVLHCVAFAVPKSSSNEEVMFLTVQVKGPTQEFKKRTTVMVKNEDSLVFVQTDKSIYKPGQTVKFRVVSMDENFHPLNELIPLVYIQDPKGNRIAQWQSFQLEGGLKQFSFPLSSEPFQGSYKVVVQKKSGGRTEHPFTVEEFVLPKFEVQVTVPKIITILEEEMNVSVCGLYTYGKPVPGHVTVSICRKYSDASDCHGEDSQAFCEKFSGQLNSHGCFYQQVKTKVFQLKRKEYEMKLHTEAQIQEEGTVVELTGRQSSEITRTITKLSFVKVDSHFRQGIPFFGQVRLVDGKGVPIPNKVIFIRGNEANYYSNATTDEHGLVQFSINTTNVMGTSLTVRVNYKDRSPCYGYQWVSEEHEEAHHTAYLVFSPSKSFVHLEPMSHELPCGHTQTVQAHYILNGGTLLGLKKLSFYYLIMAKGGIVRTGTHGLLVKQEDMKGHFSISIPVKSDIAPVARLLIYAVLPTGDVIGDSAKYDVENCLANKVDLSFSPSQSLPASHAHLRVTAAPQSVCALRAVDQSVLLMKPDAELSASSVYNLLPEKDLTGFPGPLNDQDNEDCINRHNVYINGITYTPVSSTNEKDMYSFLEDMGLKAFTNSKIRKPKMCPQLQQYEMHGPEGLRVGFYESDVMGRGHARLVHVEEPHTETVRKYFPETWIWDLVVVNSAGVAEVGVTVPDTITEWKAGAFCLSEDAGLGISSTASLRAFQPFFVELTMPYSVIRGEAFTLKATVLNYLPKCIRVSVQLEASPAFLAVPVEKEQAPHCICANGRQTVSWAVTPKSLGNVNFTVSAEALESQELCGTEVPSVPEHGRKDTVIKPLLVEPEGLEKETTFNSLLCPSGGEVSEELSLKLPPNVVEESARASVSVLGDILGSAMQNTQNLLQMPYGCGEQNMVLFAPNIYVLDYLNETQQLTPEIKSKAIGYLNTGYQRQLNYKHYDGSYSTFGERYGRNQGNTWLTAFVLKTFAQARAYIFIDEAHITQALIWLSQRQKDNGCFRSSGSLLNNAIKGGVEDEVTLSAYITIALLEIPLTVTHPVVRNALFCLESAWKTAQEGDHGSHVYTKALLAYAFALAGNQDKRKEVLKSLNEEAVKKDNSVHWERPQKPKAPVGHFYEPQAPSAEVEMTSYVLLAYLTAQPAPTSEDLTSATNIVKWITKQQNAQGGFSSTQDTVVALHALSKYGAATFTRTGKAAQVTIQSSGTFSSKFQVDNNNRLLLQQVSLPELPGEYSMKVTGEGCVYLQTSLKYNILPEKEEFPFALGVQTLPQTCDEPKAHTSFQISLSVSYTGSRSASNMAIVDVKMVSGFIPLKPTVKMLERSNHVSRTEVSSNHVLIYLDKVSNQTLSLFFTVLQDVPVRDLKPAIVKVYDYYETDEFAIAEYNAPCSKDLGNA

B1: MASP-1 CCP1-CCP2-SP fragment (protein)
chain 1: ASMTGNECPELQPPVHGKIEPSQAKYFFKDQVLVSCDTGYKVLKDNVEMDTFQIECLKDGTWSNKIPTCKIVDCRAPGELEHGLITFSTRNNLTTYKSEIKYSCQEPYYKMLNNNTGIYTCSAQGVWMNKVLGRSLPTCLPVCGLPKFSRKLMAR
chain 2: IFNGRPAQKGTTPWIAMLSHLNGQPFCGGSLLGSSWIVTAAHCLHQSLDPEDPTLRDSDLLSPSDFKIILGKHWRLRSDENEQHLGVKHTTLHPQYDPNTFENDVALVELLESPVLNAFVMPICLPEGPQQEGAMVIVSGWGKQFLQRFPETLMEIEIPIVDHSTCQKAYAPLKKKVTRDMICAGEKEGGKDACAGDSGGPMVTLNRERGQWYLVGTVSWGDDCGKKDRYGVYSYIHHNKDWIQRVTGVRN
B2: MASP-2 CCP1-CCP2-SP fragment (protein)
chain 1: IHYTSTAQPCPYPMAPPNGHVSPVQAKYILKDSFSIFCETGYELLQGHLPLKSFTAVCQKDGSWDRPMPACSIVDCGPPDDLPSGRVEYITGPGVTTYKAVIQYSCEETFYTMKVNDGKYVCEADGFWTSSKGEKSLPVCEPVCGLSARTTGGR
chain 2: IYGGQKAKPGDFPWQVLILGGTTAAGALLYDNWVLTAAHAVYEQKHDASALDIRMGTLKRLSPHYTQAWSEAVFIHEGYTHDAGFDNDIALIKLNNKVVINSNITPICLPRKEAESFMRTDDIGTASGWGLTQRGFLARNLMYVDIPIVDHQKCTAAYEKPPYPRGSVTANMLCAGLESGGKDSCRGDSGGALVFLDSETERWFVGGIVSWGSMNCGEAGQYGVYTKVINYIPWIENIISDF

Legend:
Human C2, P06681 = biological target: T1, Human C2, P06681
[1] = biological target: T2, P1 Arg oligopeptide of the competing …
[2] = biological target: T3, P1 Lys oligopeptide of the competing …
[3] = biological target: 'live' C3 (C3 with an intact thiol ester bond), P01024
Sequence of 'live' C3 (C3 with an intact thiol ester bond), P01024 (P01024 whole entry, looked up, the tested form may be a part): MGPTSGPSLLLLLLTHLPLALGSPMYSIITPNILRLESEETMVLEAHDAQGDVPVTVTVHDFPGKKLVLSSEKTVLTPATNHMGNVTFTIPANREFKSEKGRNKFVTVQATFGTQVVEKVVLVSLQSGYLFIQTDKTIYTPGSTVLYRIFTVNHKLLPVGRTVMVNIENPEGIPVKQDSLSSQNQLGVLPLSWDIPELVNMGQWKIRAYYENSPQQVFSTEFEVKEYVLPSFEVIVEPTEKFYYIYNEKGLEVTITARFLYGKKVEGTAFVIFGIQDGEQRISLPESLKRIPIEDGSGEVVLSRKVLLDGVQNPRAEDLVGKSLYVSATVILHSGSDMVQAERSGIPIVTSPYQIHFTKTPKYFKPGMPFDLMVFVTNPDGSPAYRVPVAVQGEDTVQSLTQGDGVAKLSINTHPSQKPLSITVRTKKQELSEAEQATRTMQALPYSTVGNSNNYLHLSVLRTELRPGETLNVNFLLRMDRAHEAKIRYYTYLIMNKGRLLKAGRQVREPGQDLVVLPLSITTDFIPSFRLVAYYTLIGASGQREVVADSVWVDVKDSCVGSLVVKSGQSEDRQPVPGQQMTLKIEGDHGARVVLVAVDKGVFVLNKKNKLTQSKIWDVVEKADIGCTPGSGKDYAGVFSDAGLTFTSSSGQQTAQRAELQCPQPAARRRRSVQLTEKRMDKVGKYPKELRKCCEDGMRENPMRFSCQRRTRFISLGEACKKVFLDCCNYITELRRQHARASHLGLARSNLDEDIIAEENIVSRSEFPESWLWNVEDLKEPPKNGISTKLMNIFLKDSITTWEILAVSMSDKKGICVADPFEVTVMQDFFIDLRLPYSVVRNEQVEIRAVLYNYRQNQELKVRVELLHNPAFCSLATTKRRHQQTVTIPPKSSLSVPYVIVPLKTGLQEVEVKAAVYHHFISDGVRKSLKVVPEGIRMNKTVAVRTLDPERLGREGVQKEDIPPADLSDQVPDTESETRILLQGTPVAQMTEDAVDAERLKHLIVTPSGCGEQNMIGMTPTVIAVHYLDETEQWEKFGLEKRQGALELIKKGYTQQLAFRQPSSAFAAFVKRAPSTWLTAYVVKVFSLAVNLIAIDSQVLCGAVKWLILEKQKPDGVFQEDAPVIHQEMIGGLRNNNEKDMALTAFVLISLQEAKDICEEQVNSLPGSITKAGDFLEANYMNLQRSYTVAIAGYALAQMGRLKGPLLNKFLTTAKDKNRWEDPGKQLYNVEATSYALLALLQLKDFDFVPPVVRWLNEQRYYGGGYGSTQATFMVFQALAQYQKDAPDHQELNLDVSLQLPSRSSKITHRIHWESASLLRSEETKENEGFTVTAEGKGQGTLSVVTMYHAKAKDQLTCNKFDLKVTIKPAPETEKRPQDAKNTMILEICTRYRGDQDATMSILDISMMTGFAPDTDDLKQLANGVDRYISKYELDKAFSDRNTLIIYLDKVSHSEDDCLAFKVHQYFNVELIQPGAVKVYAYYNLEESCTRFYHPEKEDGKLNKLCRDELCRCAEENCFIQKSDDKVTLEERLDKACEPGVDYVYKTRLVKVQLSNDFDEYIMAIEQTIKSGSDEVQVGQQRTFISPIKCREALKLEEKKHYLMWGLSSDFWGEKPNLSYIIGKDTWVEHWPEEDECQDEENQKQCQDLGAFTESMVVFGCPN

C1-inhibitor, P05155 [4] = biological target: T4, C1-inhibitor, P05155; experiment: SDS-stable complex formation of 125I-labelled MASP fragment with C1-inhibitor, reducing SDS-PAGE, autoradiography and densitometry
C1-inhibitor, P05155 [5] = biological target: T4, C1-inhibitor, P05155; experiment: SDS-stable complex formation of 125I-labelled MASP fragments with C1-inhibitor
[6] = biological target: T5, alpha-2-macroglobulin, P01023

Sequence of Human C4, P0C0L4 (P0C0L4 whole entry, looked up, the tested form may be a part): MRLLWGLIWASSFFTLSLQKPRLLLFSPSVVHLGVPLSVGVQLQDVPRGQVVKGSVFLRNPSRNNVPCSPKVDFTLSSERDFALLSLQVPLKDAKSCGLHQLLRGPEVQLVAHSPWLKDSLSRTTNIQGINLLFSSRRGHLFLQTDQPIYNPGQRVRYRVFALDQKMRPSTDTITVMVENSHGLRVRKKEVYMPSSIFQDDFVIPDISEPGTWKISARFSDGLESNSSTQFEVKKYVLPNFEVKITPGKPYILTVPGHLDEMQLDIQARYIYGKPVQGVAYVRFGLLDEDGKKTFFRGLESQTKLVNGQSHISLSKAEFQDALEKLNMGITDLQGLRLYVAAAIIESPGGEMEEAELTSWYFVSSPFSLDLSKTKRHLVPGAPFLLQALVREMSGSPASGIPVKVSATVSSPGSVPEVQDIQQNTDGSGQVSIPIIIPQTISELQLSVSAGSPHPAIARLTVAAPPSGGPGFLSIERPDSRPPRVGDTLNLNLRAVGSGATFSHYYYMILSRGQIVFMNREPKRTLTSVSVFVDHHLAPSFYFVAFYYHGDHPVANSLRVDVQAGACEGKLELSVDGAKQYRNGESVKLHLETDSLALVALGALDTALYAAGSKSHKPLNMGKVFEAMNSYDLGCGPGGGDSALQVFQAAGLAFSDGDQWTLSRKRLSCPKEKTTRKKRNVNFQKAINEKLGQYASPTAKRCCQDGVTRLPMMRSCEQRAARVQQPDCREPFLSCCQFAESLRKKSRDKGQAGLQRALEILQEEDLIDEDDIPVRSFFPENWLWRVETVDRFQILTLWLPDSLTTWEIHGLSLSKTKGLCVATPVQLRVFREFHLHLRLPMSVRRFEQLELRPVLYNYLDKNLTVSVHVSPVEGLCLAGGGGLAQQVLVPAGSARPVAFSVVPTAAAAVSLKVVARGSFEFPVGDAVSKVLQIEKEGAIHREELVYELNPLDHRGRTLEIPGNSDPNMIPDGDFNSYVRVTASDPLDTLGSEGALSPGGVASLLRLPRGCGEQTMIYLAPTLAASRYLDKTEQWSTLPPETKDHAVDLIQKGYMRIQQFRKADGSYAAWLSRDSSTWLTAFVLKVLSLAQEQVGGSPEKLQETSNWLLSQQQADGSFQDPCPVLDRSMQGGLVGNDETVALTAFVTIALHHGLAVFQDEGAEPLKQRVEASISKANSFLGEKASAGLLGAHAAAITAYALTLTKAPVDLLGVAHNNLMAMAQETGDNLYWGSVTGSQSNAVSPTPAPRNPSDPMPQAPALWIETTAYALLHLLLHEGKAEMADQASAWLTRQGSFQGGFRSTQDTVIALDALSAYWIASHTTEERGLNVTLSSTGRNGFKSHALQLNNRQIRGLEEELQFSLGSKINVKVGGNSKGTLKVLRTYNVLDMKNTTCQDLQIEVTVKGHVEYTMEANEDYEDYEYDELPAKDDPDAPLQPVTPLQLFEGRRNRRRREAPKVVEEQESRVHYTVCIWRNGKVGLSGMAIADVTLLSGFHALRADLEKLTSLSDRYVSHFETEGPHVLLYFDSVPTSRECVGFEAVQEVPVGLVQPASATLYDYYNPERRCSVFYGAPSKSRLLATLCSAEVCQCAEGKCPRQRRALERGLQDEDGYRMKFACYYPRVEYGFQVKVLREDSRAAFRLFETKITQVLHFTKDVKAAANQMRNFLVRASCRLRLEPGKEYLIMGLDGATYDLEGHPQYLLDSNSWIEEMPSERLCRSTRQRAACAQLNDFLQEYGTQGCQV
Sequence of 'dead' C3(NH3), P01024 (P01024 whole entry, looked up, the tested form may be a part): as the sequence (P01024 whole entry, looked up, the tested form may be a part) above

| Protein | kcat/KM, cleavage of C3(NH3) ('dead' C3(NH3), P01024) | KM, C2 cleavage (Human C2, P06681) | kcat, C2 cleavage (Human C2, P06681) | kcat/KM, C2 cleavage (Human C2, P06681) | cleavage in the competing oligopeptide substrate library [1] | digestion of the P1 Arg oligopeptide at 15 min [1] | efficiency of digestion against the MASP-2 CCP1-CCP2-SP fragment [1] | KM, C4 cleavage (Human C4, P0C0L4) | kcat, C4 cleavage (Human C4, P0C0L4) | kcat/KM, C4 cleavage (Human C4, P0C0L4) | cleavage in the competing oligopeptide substrate library [2] | kcat/KM, cleavage of live C3 [3] | kobs (pseudo-first order rate of reaction at [C1-inh] = 350 nM) (C1-inhibitor, P05155 [4]) | fold lower kobs than for the MASP-2 CCP1-CCP2-SP fragment (C1-inhibitor, P05155 [5]) | molar excess needed to abolish cleavage of complement substrates [6] |
| --- | --- | --- | --- | --- | --- | --- | --- | --- | --- | --- | --- | --- | --- | --- | --- |
| B1 | 6100 M⁻¹ s⁻¹ | 4.8 µM | 0.1 s⁻¹ | 30000 M⁻¹ s⁻¹ | both enzymes cleave oligopeptides that contain either Arg or Lys at their P1 positions | at 15 min MASP-1 showed almost 90% digestion | the MASP-1 CCP1-CCP2-SP fragment digests the P1 Arg peptide 4-5 fold more efficiently than the corresponding fragment of MASP-2 | 2.7 µM | 0.002 s⁻¹ | 690 M⁻¹ s⁻¹ | both enzymes cleave oligopeptides that contain either Arg or Lys at their P1 positions | 300 M⁻¹ s⁻¹ | 0.0014 s⁻¹ | 5-fold less for the MASP-1 CCP1-CCP2-SP than for the MASP-2 CCP1-CCP2-SP fragment | – |
| B2 | 3300 M⁻¹ s⁻¹ | 4 µM | 1.9 s⁻¹ | 500000 M⁻¹ s⁻¹ | both enzymes cleave oligopeptides that contain either Arg or Lys at their P1 positions | MASP-2 cleaved less than 20% of the substrate | – | 1.6 µM | 0.9 s⁻¹ | 550000 M⁻¹ s⁻¹ | both enzymes cleave oligopeptides that contain either Arg or Lys at their P1 positions | 350 M⁻¹ s⁻¹ | 0.0078 s⁻¹ | – | or with a large molar excess (40 fold) of alpha-2-macroglobulin |
